Assay results as given in paper doi:10.1101/2020.10.05.326918 (bioRxiv, 2020).

T1: MED15 (Mus musculus (endogenous in CH12 cells), UniProt Q924H2 1-789)
T1 sequence (looked up): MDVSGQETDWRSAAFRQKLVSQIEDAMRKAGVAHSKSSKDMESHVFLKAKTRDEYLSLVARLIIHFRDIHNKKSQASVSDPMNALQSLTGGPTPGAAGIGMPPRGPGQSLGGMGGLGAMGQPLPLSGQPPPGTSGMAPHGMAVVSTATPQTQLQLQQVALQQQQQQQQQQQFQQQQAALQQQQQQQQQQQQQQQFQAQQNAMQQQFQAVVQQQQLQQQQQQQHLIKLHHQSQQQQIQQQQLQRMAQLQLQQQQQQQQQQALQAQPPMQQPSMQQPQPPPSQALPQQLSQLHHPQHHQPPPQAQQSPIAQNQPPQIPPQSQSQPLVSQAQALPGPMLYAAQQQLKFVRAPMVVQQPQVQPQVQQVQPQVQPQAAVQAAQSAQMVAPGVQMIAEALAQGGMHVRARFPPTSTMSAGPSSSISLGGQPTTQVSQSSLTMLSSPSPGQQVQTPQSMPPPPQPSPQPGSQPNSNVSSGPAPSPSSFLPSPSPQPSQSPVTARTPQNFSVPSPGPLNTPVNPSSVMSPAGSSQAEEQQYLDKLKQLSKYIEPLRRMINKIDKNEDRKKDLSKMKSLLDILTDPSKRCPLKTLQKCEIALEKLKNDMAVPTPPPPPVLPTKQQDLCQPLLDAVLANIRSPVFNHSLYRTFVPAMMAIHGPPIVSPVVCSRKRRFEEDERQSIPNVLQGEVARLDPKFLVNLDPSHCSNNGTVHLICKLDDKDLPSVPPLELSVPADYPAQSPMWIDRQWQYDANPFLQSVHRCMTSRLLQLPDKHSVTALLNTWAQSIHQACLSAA

T2: MED16 (Mus musculus (endogenous in CH12 cells), UniProt Q6PGF3 1-828)
T2 sequence (looked up): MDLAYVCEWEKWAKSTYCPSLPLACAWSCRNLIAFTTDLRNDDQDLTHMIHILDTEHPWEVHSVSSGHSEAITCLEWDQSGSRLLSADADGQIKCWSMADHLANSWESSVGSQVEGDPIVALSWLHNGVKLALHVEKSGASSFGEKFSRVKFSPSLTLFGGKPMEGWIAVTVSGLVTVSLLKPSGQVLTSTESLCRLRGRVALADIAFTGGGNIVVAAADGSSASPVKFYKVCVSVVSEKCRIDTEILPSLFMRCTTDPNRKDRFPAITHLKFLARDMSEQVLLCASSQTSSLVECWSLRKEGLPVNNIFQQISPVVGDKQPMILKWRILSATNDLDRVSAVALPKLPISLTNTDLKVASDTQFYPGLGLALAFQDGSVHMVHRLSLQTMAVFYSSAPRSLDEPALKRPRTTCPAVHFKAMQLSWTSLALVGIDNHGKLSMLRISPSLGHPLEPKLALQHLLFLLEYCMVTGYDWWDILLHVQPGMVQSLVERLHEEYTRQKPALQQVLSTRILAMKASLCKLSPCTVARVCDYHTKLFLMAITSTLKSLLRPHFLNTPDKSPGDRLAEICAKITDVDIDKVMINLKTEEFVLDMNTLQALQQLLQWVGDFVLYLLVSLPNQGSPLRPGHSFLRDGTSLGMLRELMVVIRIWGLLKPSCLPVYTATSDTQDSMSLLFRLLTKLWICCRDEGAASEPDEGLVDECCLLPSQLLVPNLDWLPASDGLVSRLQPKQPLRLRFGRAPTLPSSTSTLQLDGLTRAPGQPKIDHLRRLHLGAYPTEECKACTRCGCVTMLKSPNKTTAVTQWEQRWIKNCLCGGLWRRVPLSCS

T3: MED22 (Mus musculus (endogenous in CH12 cells), UniProt Q62276 1-200)
T3 sequence (looked up): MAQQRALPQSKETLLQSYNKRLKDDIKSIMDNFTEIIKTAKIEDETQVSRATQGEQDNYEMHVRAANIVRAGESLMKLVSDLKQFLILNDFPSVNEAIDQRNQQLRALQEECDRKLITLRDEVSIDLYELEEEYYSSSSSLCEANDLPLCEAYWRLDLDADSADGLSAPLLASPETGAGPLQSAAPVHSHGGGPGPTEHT

B1: MED29 (natural protein, Mus musculus (endogenous in CH12 cells), UniProt Q9DB91 1-199, looked up)
chain: MAAPQPQAAAVSSASGVSGPGSAGGPGPQQQPQPTQLVGSAQSGLLQQQQQDFDPVQRYKMLIPQLKESLQTLMKVAAQNLIQNTNIDNGQKSSDAPLQRFDKCLEEFYALCDQLELCLRLAHECLSQSCDSAKHSPTLVPTATKPDAVQPDSLPYPQYLAVIKAQITCAKDIHTALLDCANKVTGKTTAPSTGPGGSL
B2: MED28 (natural protein, Mus musculus (endogenous in CH12 cells), UniProt Q920D3 1-178, looked up)
chain: MAASLGGMFTGQPPGPPPPPPGLPGQASLLQAAPGAPRPSNSTLVDELESSFEACFASLVSQDYVNGTDQEEIRTGVDQCIQKFLDIARQTECFFLQKRLQLSVQKPDQVIKEDVSELRSELQRKDALVQKHLTKLRHWQQVLEDINVQHKKPADMPQGSLAFLEQASANIPAPLKQT
B3: MED27 (natural protein, Mus musculus (endogenous in CH12 cells), UniProt Q9DB40 1-311, looked up)
chain: MADVLSVGVNLEAFSQAISAIQALRSSVSRVFDCLKDGMRNKETLEGREKAFIANFQDNLHSVNRDLNELERLSNLVGKPSENHPLHNSGLLSLDPVQDKTPLYSQLLQAYKWSNKLQYHAGLASGLLNQQSLKRSANQMGVSAKRRPKAQPTTLVLPPQYVDDVISRIDRMFPEMSIHLSRPNGTSAMLLVTLGKVLKVIVVMRSLFIDRTIVKGYNESVYTEDGKLDIWSKSSYQVFQKVTDHATTALLHYQLPQMPDVVVRSFMTWLRSYIKLFQAPCQRCGKFLQDGLPPTWRDFRTLEAFHDTCRQ
B4: MED30 (natural protein, Mus musculus (endogenous in CH12 cells), UniProt Q9CQI9 1-178, looked up)
chain: MSTPPLAPTGMASGPFGGPQAQQAAREVNTATLCRIGQETVQDIVYRTMEIFQLLRNMQLPNGVTYHTGTYQDRLTKLQDHLRQLSILFRKLRLVYDKCNENCGGMDPIPVEQLIPYVDEDGSKNDDRAGPPRFASEERREIVEVNKKLKQKNQQLKQIMDQLRNLIWDINAMLAMRN
B5: MED17 (natural protein, Mus musculus (endogenous in CH12 cells), UniProt Q8VCD5 1-649, looked up)
chain: MSGVRAVRISIESACEKQVQEVGLDGTETYLQPLSMSQNLARLAQRIDFSQGSGSEEEEAAGPDGDAPDWGGAGADQDDEEGLVKFQPSLWPWDSVRNNLRSALTEMCVLYDVLSIVRDKKFMTLDPVSQDALPPKQSPQTLQLISKKKSLAGAAQILLKGAERLTKSVAENQENKLQRDFNSELLRLRQHWKLRKVGDKILGDLSYRSAGSLFPHHGTFEVIKNTDIDLDKKIPEDYCPLDVQIPSDLEGSAYIKVSIQKQAPDIGDLGTVNLFKRPLPKSKPGSPHWQTKLEAAQNVLLCKEIFAQLSREAVQIKSQIPHIVVKNQIISQPFPSLQLSISLCHSSDDKKSQKCAAEKPGQEDHLYVLEHNLHLLIREFHKQTLSSIVMPHPASAPFGHKRMRLSGPQAFDKNEINSIQSTEGLLEKIIKQAKHIFLRSRTAATIDSLASRIEDPQIQAHWSNINDVYESSVKVLITSQGYEQICKSIQLQLNIGVEQVRVVHRDGRVIMLSHQEQELQDFLLSQMSQHQVHAVQQLAKVMGWQVLSFSNHVGLGPIESIGNASAITVASPSGDYAISVRNGPESGSKIMVQFPRNQCKDLPKSDVLQDSKWSHLRGPFKEVQWNKMEGRNFVYKMELLMSALSPCLL

Tests used:
Assay in all cases: cryo-EM structure
MED15 = target: T1, MED15
MED14 = MED14 (Mus musculus (endogenous in CH12 cells), UniProt A2ABV5 1-1459)
MED14, sequence (A2ABV5 whole entry): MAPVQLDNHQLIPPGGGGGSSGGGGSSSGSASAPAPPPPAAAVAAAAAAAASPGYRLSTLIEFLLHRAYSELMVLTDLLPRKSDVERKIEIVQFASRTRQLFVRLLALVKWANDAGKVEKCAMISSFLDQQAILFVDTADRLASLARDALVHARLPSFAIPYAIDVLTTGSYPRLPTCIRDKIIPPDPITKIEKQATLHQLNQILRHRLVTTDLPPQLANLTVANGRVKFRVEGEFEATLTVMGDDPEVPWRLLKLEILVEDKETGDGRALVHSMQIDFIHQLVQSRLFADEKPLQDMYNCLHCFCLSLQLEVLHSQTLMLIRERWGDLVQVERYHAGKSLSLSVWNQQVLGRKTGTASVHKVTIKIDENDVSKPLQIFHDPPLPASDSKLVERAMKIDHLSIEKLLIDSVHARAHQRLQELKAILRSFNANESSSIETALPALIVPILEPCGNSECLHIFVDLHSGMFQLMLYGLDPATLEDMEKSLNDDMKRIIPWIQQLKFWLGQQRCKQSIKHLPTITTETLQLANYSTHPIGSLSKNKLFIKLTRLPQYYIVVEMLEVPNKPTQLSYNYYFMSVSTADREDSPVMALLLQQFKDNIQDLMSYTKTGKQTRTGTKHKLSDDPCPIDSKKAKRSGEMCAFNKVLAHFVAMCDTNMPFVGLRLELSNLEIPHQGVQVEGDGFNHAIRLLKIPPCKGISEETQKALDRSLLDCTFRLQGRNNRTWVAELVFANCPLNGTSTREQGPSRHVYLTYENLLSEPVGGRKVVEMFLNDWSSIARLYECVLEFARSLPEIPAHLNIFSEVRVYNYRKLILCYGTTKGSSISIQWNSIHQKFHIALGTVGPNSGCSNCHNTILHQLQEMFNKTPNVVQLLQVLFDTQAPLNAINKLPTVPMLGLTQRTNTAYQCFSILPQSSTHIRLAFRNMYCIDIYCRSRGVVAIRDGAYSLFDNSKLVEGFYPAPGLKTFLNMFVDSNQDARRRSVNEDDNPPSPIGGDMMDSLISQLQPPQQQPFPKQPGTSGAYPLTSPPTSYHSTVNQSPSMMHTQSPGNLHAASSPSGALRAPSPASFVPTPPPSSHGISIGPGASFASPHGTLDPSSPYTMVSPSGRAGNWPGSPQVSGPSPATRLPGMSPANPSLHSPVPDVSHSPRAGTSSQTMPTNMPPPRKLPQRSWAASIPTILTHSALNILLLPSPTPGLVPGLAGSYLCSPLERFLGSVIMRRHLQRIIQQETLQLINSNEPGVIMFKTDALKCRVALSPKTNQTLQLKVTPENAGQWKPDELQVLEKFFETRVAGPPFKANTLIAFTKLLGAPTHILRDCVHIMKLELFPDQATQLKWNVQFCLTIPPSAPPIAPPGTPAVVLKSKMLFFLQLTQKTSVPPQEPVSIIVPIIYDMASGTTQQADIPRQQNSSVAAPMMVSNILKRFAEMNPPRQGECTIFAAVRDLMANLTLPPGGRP

MED27 = target: B3
MED16 = target: T2, MED16
MED29 = target: B1
MED22 = target: T3, MED22
MED30 = target: B4
MED17 = target: B5

Measured: binding result

B1
binds: MED15 | MED14 | MED27 | MED16

B2
binds: MED29 | MED22 | MED30 | MED27

B3
binds: MED15 | MED17 | MED14 | MED16

B4
binds: MED29 | MED22 | MED27

B5
binds: MED15 | MED14
